# Where two headings read alike, the source gives them in different places. Bridge positions count the residues as written; N and C are the ends. Square brackets hold non-standard residues; d marks the D form. Peptide text beside a SMILES is read from it. * marks the point of attachment. ξ: configuration not given here. X1 = CNC(=O)c1ccccc1Sc1ccc2c(/C=C/c3ccccn3)nn(C(=O)N(CCNC(=O)[C@@H](N)CCC(=O)O)CCC(=O)*)c2c1; X3 = CNC(=O)c1ccccc1Sc1ccc2c(/C=C/c3ccccn3)nn(C(=O)N(CCOC(=O)[C@@H](N)CCC(=O)O)CCC(=O)*)c2c1; X2 = CNC(=O)c1ccccc1Sc1ccc2c(/C=C/c3ccccn3)nn(C(=O)N(CCNC(=O)CC[C@H](N)C(=O)O)CCC(=O)*)c2c1; Thr(3ξ) = CC(O)[C@H](N)C(=O)O; Dab = NCC[C@H](N)C(=O)O; ξL = CC(C)CC(N)C(=O)O
# Legend:
# [1] = for Blood Plasma Conc. of axitinib / Blood Plasma Conc. of released axitinib / Kidney Tissue Conc. of released axitinib: mouse; for Blood Plasma Conc. of axitinib: oral gavage, single dose 30 mg/kg; for axitinib level in kidney tissues vs from axitinib itself: 3 mg/kg compound vs 30 mg/kg oral axitinib; for Blood Plasma Conc. of released axitinib / Kidney Tissue Conc. of released axitinib: injection, single dose 3 mg/kg; for Kidney Tissue Conc. of released axitinib: corrected for kidney tissue density
# [2] = axitinib therapy, human use; cited from earlier work
# [3] = tested on: luciferase-expressing A498 renal cancer cell line (A498-luc); conditions: 12 mg/kg/day ip vs axitinib at 30 mg/kg/day
# Method: An illustrative efficacy study for the compounds described herein was investigated in an orthotopic mouse model. In this model, a luciferase-expressing A498 renal cancer cell line (A498-luc) was used. The cancer cells were implanted into a kidney capsule and the tumor growth and effect were monitored by the image size using IVIS Lumina III (Perkin Elmer) and mouse body weight changes. Specifically, mice were anesthetized by SC injection of Zolet™ m 50 (Virbac S. A.) after 24 h fasting. The skin of anesthetized mice was sterilized with iodine followed by alcohol. 4×10^6 luciferase-expressing A498-luc cells were implanted in the left kidney by insulin syringe. The skin incisions were closed with autosuture clip. The tumor growths were monitored by image analysis. […] At 10 mins after the luciferin injection, the mice were imaged (once a week). Living image software (Perkin Elmer) is used to compute regions of interest (ROI) and integrate the total bioluminescence signal in each ROI. Bioluminescent signals (photos/s) from ROI were quantified and used as an indicator of tumor growth and antitumor activity. Body weight of all mice were measured twice a week throughout the study.
# HK-2 cell line = assay: HK-2 cytotoxicity assay; type: cell-based, human
# Text: The assay is analogously to that described, for example, by Keirstead et al. in Toxicol. Sci. 2014, vol. 137, pp. 278-291.
# [4] = In vitro antibacterial activity (MIC); type: cell-based; conditions: relative to polymyxin antibiotics such as polymyxin B and colistin
# [5] = 14-days repeat-dose mouse tolerability test; type: in vivo; conditions: dose of at least 18 mg/kg/day
# in vivo = conditions: mouse, 3 mg/kg; for level at 3 h: iv
# Text: Preferential accumulation of compounds provided herein in kidneys (or near the site of a kidney cancer) may be evaluated by pharmacokinetic (PK) tests, such as in a standard rat PK test.
smiles,measurement,setting,value
"CNC(=O)c1ccccc1Sc1ccc2c(/C=C/c3ccccn3)n[nH]c2c1 [Axitinib, N-methyl-2-[[3-[(E)-2-pyridin-2-ylethenyl]-1H-indazol-6-yl]sulfanyl]benzamide, reference compound]",Blood Plasma Conc. of axitinib,[1]; T = 3 h,T = 3 h: 397.3 ng/mL
same,Blood Plasma Conc. of axitinib,[1]; T = 6 h,T = 6 h: 75.6 ng/mL
same,Blood Plasma Conc. of axitinib,[1]; T = 12 h,T = 12 h: 11.4 ng/mL
same,Blood Plasma Conc. of axitinib,[1]; T = 24 h,T = 24 h: BLQ^d
same,incidence of hypertensive adverse effects,[2],40-64%
CNC(=O)c1ccccc1Sc1ccc2c(/C=C/c3ccccn3)nn(C(=O)N(CCNC(=O)[C@@H](N)CCC(=O)O)CCC(=O)N[C@H](C(=O)N[C@@H](CCN)C(=O)N[C@H]3CCNC(=O)[C@H](C(C)O)NC(=O)[C@H](CCN)NC(=O)[C@H](CCN)NC(=O)[C@H](CC(C)C)NC(=O)[C@@H](Cc4ccccc4)NC(=O)[C@H](CCN)NC3=O)C(C)O)c2c1 (stereo partly shown) [Example 1] (X1-[Thr(3ξ)][Dab][Dab][Dab][dF]L[Dab][Dab][Thr(3ξ)]; lactam 3-C),body weight change (loss in weight) during efficacy study,[3],minimized loss in weight
same,axitinib level in kidney tissues vs from axitinib itself,[1]; at 3 h,6.50 fold
same,axitinib level in kidney tissues vs from axitinib itself,[1]; at 6 h,about 15 fold
same,Blood Plasma Conc. of released axitinib,[1]; T = 3 h,T = 3 h: 9.7 ng/mL
same,Kidney Tissue Conc. of released axitinib,[1]; T = 3 h,T = 3 h: 1955.3 ng/mL
same,Blood Plasma Conc. of released axitinib,[1]; T = 6 h,T = 6 h: 4.0 ng/mL
same,Kidney Tissue Conc. of released axitinib,[1]; T = 6 h,T = 6 h: 1448.5 ng/mL
same,Blood Plasma Conc. of released axitinib,[1]; T = 12 h,T = 12 h: BLQ
same,Kidney Tissue Conc. of released axitinib,[1]; T = 12 h,T = 12 h: 1437.9 ng/mL
same,Blood Plasma Conc. of released axitinib,[1]; T = 24 h,T = 24 h: BLQ
same,In vitro human HK-2 assay IC50,HK-2 cell line; HK-2 immortalized proximal tubule cells from normal human kidney,>100 µg/mL
same,fold less active than axitinib in HK-2 cytotoxicity assay,HK-2 cell line; vs axitinib (free drug form),2-3 fold
same,"antibacterial activity (MIC, minimum inhibitory concentration)",[4],minimized antibacterial activity
same,tolerability,[5],well-tolerated
same,Kidney-to-Blood Conc. Ratio,in vivo; T = 3 h after injection,63
same,level at 3 h,in vivo; kidney,563 ng/mL
same,level at 3 h,in vivo; plasma,9 ng/mL
CNC(=O)c1ccccc1Sc1ccc2c(/C=C/c3ccccn3)nn(C(=O)N(CCNC(=O)[C@@H](N)CCC(=O)O)CCC(=O)N[C@H]3CCNC(=O)[C@H]([C@@H](C)O)NC(=O)[C@H](CCN)NC(=O)[C@H](CCN)NC(=O)C(CC(C)C)NC(=O)[C@@H](Cc4ccccc4)NC(=O)[C@H](CCN)NC3=O)c2c1 (stereo partly shown) [Example 2] (X1-[Dab][Dab][dF][ξL][Dab][Dab]T; lactam 1-C),Blood Plasma Conc. of released axitinib,[1]; T = 3 h,T = 3 h: 3.3 ng/mL
same,Kidney Tissue Conc. of released axitinib,[1]; T = 3 h,T = 3 h: 5140 ng/mL
same,Blood Plasma Conc. of released axitinib,[1]; T = 6 h,T = 6 h: BLQ
same,Kidney Tissue Conc. of released axitinib,[1]; T = 6 h,T = 6 h: 4630 ng/mL
CNC(=O)c1ccccc1Sc1ccc2c(/C=C/c3ccccn3)nn(C(=O)N(CCOC(=O)[C@@H](N)CCC(=O)O)CCC(=O)N[C@H]3CCNC(=O)[C@H]([C@@H](C)O)NC(=O)[C@H](CCN)NC(=O)[C@H](CCN)NC(=O)C(CC(C)C)NC(=O)[C@@H](Cc4ccccc4)NC(=O)[C@H](CCN)NC3=O)c2c1 (stereo partly shown) [Example 7] (X3-[Dab][Dab][dF][ξL][Dab][Dab]T; lactam 1-C),Blood Plasma Conc. of released axitinib,[1]; T = 3 h,T = 3 h: 14.5 ng/mL
same,Kidney Tissue Conc. of released axitinib,[1]; T = 3 h,T = 3 h: 4280 ng/mL
same,Blood Plasma Conc. of released axitinib,[1]; T = 6 h,T = 6 h: BLQ
same,Kidney Tissue Conc. of released axitinib,[1]; T = 6 h,T = 6 h: 4860 ng/mL
"CNC(=O)c1ccccc1Sc1ccc2c(/C=C/c3ccccn3)nn(C(=O)N(CCNC(=O)CC[C@H](N)C(=O)O)CCC(=O)N[C@H](C(=O)N[C@@H](CCN)C(=O)N[C@H]3CCNC(=O)[C@H]([C@@H](C)O)NC(=O)[C@H](CCN)NC(=O)[C@H](CCN)NC(=O)[C@H](CC(C)C)NC(=O)[C@@H](Cc4ccccc4)NC(=O)[C@H](CCN)NC3=O)[C@@H](C)O)c2c1 [Example 9, reference compound] (X2-T[Dab][Dab][Dab][dF]L[Dab][Dab]T; lactam 3-C)",Blood Plasma Conc. of released axitinib,[1]; T = 3 h,T = 3 h: 14.9 ng/mL
same,Kidney Tissue Conc. of released axitinib,[1]; T = 3 h,T = 3 h: 371.6 ng/mL
same,Blood Plasma Conc. of released axitinib,[1]; T = 6 h,T = 6 h: BLQ
same,Kidney Tissue Conc. of released axitinib,[1]; T = 6 h,T = 6 h: 28.8 ng/mL
